Measurements as given in US20120276611A1 (GRIFOLS THERAPEUTICS, published 2012).

T1: α2-antiplasmin (UniProt P08697 40-491, limits assumed)
T1 construct: also called α2-AP
T1 sequence (looked up): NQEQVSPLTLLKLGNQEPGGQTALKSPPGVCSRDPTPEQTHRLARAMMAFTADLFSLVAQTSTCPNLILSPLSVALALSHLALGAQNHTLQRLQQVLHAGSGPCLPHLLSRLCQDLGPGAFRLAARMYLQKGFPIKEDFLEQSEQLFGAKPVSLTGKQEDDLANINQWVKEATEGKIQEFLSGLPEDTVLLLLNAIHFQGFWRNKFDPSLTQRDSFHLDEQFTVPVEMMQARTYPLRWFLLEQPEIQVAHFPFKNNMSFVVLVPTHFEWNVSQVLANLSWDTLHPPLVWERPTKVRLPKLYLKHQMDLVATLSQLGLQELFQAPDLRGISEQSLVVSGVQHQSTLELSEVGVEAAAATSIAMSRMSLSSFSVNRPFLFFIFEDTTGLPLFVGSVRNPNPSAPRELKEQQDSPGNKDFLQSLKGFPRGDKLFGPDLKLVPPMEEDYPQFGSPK

B1: mini-plasmin (enzyme)
chain: VAPPPVVLLPDVETPSEEDCMFGNGKGYRGKRATTVTGTPCQDWAAQEPHRHSIFTPETNPRAGLEKNYCRNPDGDVGGPWCYTTNPRKLYDYCDVPQCAAPSFDCGKPQVEPKKCPGRVVGGCVAHPHSWPWQVSLRTRFGMHFCGGTLISPEWVLTAAHCLEKSPRPSSYKVILGAHQEVNLEPHVQEIEVSRLFLEPTRKDIALLKLSSPAVITDKVIPACLPSPNYVVADRTECFITGWGETQGTFGAGLLKEAQLPVIENKVCNRYEFLNGRVQSTELCAGHLAGGTDSCQGDSGGPLVCFEKDKYILQGVTSWGLGCARPNKPGVYVRVSRFVTWIEGVMRNN
notes: also called mini-plasmin (K5-SP)
B2: (TAL6003)-plasmin (enzyme)
chain: MRDVVLFEKKVYLSECKTGNGKNYRGTMSKTKNGITCQKWSSTSPHRPRFSPATHPSEGLEENYCRNPDNDPQGPWCYTTDPEKRYDYCDVPQCAAPSFDCGKPQVEPKKCPGRVVGGCVAHPHSWPWQVSLRTRFGMHFCGGTLISPEWVLTAAHCLEKSPRPSSYKVILGAHQEVNLEPHVQEIEVSRLFLEPTRKDIALLKLSSPAVITDKVIPACLPSPNYVVADRTECFITGWGETQGTFGAGLLKEAQLPVIENKVCNRYEFLNGRVQSTELCAGHLAGGTDSCQGDSGGPLVCFEKDKYILQGVTSWGLGCARPNKPGVYVRVSRFVTWIEGVMRNN
notes: also called recombinant (TAL6003)-plasmin
B3: micro-plasmin (enzyme, UniProt P00747 562-810, looked up)
chain: APSFDCGKPQVEPKKCPGRVVGGCVAHPHSWPWQVSLRTRFGMHFCGGTLISPEWVLTAAHCLEKSPRPSSYKVILGAHQEVNLEPHVQEIEVSRLFLEPTRKDIALLKLSSPAVITDKVIPACLPSPNYVVADRTECFITGWGETQGTFGAGLLKEAQLPVIENKVCNRYEFLNGRVQSTELCAGHLAGGTDSCQGDSGGPLVCFEKDKYILQGVTSWGLGCARPNKPGVYVRVSRFVTWIEGVMRNN
notes: domain: serine protease domain; also called micro-plasmin (lacking all five kringles)

Assays:
α2-antiplasmin [1] = biological target: T1, α2-antiplasmin; assay: enzyme mixed with α2-antiplasmin, residual S-2251 activity at time points (Wiman and Collen); 22° C., PBS pH 7.4
Protocol: TABLE 3 Inhibition rates for various plasmin species and inhibitors were determined at 22° C. in PBS buffer, pH 7.4.

α2-antiplasmin [2] = biological target: T1, α2-antiplasmin; assay: inhibition rates by α2-antiplasmin compared (residual S-2251 activity)

Row | inhibition rate (second-order rate constant) (α2-antiplasmin [1]) [M⁻¹ s⁻¹] | fold faster inhibition than micro-plasmin or mini-plasmin (α2-antiplasmin [2]) [fold] | Binder
1 | 240000 |  | B1
2 | 1.8e+07 | 40 | B2
3 | 180000 |  | B3
